# Test results reported in publication PMC4840434, “The interactome of Streptococcus pneumoniae and its bacteriophages show highly specific patterns of interactions among bacteria and their phages” (Scientific Reports, 2016).
# What was measured:
# Test in all cases: pull-down; LuMPIS: N-terminally MBP-tagged bait pulled down on amylose beads, N-terminally eGFP-luciferase-tagged prey detected by luciferase activity; both expressed in HEK cells, raw protein extracts; quadruplicates; LIR against MBP without ORF
# [1] = molecular target: Dp-1 orf32, Hypothetical protein (LuMPIS construct) (phage Dp-1 of S. pneumoniae)
# [2] = molecular target: Dp-1 orf16, NAD-dependent DNA ligase (LuMPIS construct) (phage Dp-1 of S. pneumoniae)
# [3] = molecular target: Cp-1 orf16, Hypothetical protein (LuMPIS construct) (phage Cp-1 of S. pneumoniae)
# [4] = molecular target: Dp-1 orf39, Zinc finger protein (LuMPIS construct) (phage Dp-1 of S. pneumoniae)
# [5] = molecular target: Dp-1 orf9, No similarity (LuMPIS construct) (phage Dp-1 of S. pneumoniae)
# [6] = molecular target: Dp-1 orf31, Hypothetical protein (LuMPIS construct) (phage Dp-1 of S. pneumoniae)
# [7] = molecular target: Dp-1 orf60, Hypothetical protein (LuMPIS construct) (phage Dp-1 of S. pneumoniae)
# [8] = molecular target: Dp-1 orf58, Holin (LuMPIS construct) (phage Dp-1 of S. pneumoniae)
# [9] = molecular target: Dp-1 orf72, Membrane protein (LuMPIS construct) (phage Dp-1 of S. pneumoniae)
# [10] = molecular target: Dp-1 orf47, Hypothetical protein (LuMPIS construct) (phage Dp-1 of S. pneumoniae)
# [11] = molecular target: Dp-1 orf33, Hypothetical protein (LuMPIS construct) (phage Dp-1 of S. pneumoniae)
# [12] = molecular target: T1, Cp-1 Cpl1, Lysozyme (LuMPIS construct) (phage Cp-1 of S. pneumoniae, UniProt P15057 1-339); conditions: partners not purified
# T1 construct: Cpl1 lysozyme of phage Cp-1; ORF in a Gateway LuMPIS vector; source: HEK cells, raw protein extract
# T1 sequence: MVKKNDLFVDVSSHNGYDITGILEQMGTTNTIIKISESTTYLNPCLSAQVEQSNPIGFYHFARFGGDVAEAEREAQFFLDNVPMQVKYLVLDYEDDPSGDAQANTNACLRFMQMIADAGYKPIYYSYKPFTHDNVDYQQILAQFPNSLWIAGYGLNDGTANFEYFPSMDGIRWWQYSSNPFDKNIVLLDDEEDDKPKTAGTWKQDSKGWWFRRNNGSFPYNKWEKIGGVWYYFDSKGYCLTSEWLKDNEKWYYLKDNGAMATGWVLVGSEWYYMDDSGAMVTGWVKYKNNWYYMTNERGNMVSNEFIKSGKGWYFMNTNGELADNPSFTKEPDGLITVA
# [13] = molecular target: Dp-1 orf51, Hypothetical protein (LuMPIS construct) (phage Dp-1 of S. pneumoniae)
# Sequence of SP_0259, Holliday junction DNA helicase RuvB (LuMPIS construct) (Q97SR6 whole entry): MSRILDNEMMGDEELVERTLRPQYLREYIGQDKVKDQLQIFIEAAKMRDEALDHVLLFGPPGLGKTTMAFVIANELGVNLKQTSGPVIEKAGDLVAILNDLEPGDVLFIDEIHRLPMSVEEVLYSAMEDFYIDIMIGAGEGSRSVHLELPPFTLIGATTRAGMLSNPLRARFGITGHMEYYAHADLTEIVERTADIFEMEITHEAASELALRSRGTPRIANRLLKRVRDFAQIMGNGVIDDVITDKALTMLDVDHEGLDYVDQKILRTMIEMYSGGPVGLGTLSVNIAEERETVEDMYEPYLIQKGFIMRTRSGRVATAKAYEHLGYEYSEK
molecule,measurement,setting,value
"SP_0259, Holliday junction DNA helicase RuvB (LuMPIS construct) (from UniProt Q97SR6 1-332) (natural protein)",LIR (luminescence intensity ratio against MBP alone),[1],3
same,LIR (luminescence intensity ratio against MBP alone),[2],5
same,LIR (luminescence intensity ratio against MBP alone),[3],12
same,LIR (luminescence intensity ratio against MBP alone),[4],10
same,LIR (luminescence intensity ratio against MBP alone),[5],11
same,LIR (luminescence intensity ratio against MBP alone),[6],4
"SP_2024, PTS system, IIA component (LuMPIS construct) (from UniProt A0A0H2US90 1-108) (natural protein)",LIR (luminescence intensity ratio against MBP alone),[7],5
"SP_1606, glycosyl transferase, family 2 (LuMPIS construct) (from UniProt A0A0H2UQY5 1-320) (natural protein)",LIR (luminescence intensity ratio against MBP alone),[8],3
same,LIR (luminescence intensity ratio against MBP alone),[9],50
"SP_0687, ABC transporter, ATP-binding protein (LuMPIS construct) (from UniProt A0A0H2UP48 1-213) (natural protein)",LIR (luminescence intensity ratio against MBP alone),[10],4
"SP_1088, DNA repair protein RadC (LuMPIS construct) (natural protein) MYSISFQEDSLLPRERLAKEGVEALSNQELLAILLRTGTRQASVFEIAQKVLNNLSSLTDLKKMTLQELQSLSGIGRVKAIELQAMIELGHRIHKHETLEMESILSSQKLAKKMQQELGDKKQEHLVALYLNTQNQIIHQQTIFIGSVTRSIAEPREILHYAIKHMATSLILVHNHPSGAVAPSQNDDHVTKLVKEACELMGIVLLDHLIVSHSNYFSYREKTDLI",LIR (luminescence intensity ratio against MBP alone),[11],3
"SP_1208, uridine kinase (LuMPIS construct) (natural protein, S. pneumoniae TIGR4, UniProt P67413 1-212, looked up, SP_1208 uridine kinase, S. pneumoniae TIGR4; ORF in a Gateway LuMPIS vector; source: HEK cells, raw protein extract) MQNRPIIIGVTGGSGGGKTSVSRAILSHFPDEKISMIEHDSYYKDQSHLTFEERVKTNYDHPFAFDTDLMIEQIKELLAGRPVDIPTYDYTEHTRSSKTYRQEPQDVFIVEGILVLEDKRLRDLMDIKIFVDTDDDVRIIRRIKRDMEERGRSLDSVINQYLGVVKPMYHQFIESTKRYADIVIPEGVSNTVAIDLLTTKIAKILEEARNSK",LIR (luminescence intensity ratio against MBP alone),[12],4
"SP_1672, recombination protein RecR (LuMPIS construct) (natural protein) MLYPTPIAKLIDSYSKLPGIGIKTATRLAFYTIGMSADDVNEFAKNLLSAKRELTYCSICGRLTDDDPCSICTDPTRDQTTILVLEDSRDVAAMENIQEYHGLYHVLHGLISPMNGISPDDINLKSLMTRLMDSEVSEVIVATNATADGEATSMYLSRLLKPAGIKVTRLARGLAVGADIEYADEVTLLRAIENRTEL",LIR (luminescence intensity ratio against MBP alone),[13],6
